Results from patent publication US20240199757A1 (UNIVERSITY OF CHICAGO, published 2024).

T1: Full-length human NT5E (recombinant, in-house) (human, UniProt P21589 27-549)
T1 construct: also called hNT5E; hNT5EWT
T1 sequence: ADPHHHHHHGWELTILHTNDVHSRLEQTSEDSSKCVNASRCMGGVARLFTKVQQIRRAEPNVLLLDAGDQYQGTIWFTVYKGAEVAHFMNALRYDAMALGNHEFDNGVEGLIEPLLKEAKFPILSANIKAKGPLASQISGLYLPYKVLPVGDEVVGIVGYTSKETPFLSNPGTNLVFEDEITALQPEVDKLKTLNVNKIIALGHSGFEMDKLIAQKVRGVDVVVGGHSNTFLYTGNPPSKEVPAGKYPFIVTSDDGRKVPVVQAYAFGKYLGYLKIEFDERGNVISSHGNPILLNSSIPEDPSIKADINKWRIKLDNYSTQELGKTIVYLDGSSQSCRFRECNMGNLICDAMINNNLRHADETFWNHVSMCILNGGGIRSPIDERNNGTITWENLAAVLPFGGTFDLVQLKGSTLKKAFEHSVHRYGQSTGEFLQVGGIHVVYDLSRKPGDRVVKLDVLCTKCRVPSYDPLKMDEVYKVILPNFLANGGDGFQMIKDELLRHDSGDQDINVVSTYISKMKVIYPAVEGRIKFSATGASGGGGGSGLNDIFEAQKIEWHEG

T2: Full-length murine NT5E (recombinant) (murine, UniProt Q61503 29-552)
T2 construct: also called mNT5E
T2 sequence: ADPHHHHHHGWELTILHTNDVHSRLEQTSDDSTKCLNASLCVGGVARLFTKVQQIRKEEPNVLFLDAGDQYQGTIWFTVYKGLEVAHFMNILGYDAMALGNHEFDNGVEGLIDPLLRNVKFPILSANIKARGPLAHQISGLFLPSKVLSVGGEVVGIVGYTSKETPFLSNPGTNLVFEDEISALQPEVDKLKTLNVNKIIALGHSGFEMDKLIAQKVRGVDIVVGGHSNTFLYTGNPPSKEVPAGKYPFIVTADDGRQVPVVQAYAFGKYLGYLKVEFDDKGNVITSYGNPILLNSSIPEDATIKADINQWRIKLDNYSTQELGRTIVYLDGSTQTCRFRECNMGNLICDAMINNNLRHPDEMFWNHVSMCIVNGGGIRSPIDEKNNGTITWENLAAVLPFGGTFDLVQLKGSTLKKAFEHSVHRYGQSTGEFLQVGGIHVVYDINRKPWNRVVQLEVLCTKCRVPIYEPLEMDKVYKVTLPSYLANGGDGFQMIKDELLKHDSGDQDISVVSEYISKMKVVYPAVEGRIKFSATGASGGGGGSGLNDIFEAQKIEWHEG


Experiments:
[1] = target: T1, Full-length human NT5E (recombinant, …); test: DSF thermal shift, 1.5-fold molar excess of Fab, no ATP (NT5E alone 49° C.)
Protocol: (§1) Thermal stability of samples was analyzed by differential scanning fluorimetry (DSF) using a real-time PCR instrument (Bio-Rad CFX384). Protein samples were mixed with 4× Sypro Orange at a final 4 μM concentration. For target/Fab complexes, 1.5-fold molar excess of Fab was used. All reactions were performed in triplicates in a 384-well plate. Thermal melting curves were monitored from 25° C. to 95° C. in steps of 0.5° C./30 s. Wavelengths of 490 and 575 nm were used for excitation and emission, respectively. The melting temperatures were inferred from the first derivative of the melting curves from the mean of triplicate runs using CFX software provided by the manufacturer.
TABLE 6 Summary of TM for hNT5EWT hNT5EDF, and hNT5E by differential scanning fluorimetry. […] Melting temperatures (TM) are for NT5E only and are represented by the mean of three replicates.

[2] = target: hNT5EDF (substrate binding knock-out variant of hNT5E) (human); test: DSF thermal shift, 1.5-fold molar excess of Fab, 1 mM ATP (hNT5EDF alone 46° C.)
Protocol: (§2) With 1 mM ATP alone (red dashed line), the TM shifts from one transition at 49° C. to two transitions at TM 59° C. and 64° C. […] Thermal shift assays of substrate binding knock-out variants hNT5EDF (FIG. 2B) and hNT5EFF (FIG. 2C) show no change in thermal stability with the addition of ATP.
as §1

[3] = target: T1, Full-length human NT5E (recombinant, …); test: DSF thermal shift, 1.5-fold molar excess of Fab, 1 mM ATP (NT5E alone 59° C. and 64° C.)
Protocol: as §2, §1

[4] = target: T2, Full-length murine NT5E (recombinant); test: ELISA, biotinylated NT5E on neutravidin plate, 1 mM ATP
Protocol: (B) Protein ELISA: Protein-based multipoint ELISA was performed to estimate the affinity of the generated Fabs and IgGs to NT5E. The binding of the Fabs and IgGs to the closed form of NT5E were determined in ELISA buffer (HBST) supplemented with 10 μM zinc chloride and 1 mM ATP while the binding of the same to open form of NT5E were determined in ELISA buffer (HBST) without any cofactors. A fixed concentration of the immobilized target (50 nM) on ELISA plate was incubated with 3-fold serial dilutions of the purified Fabs and IgGs starting from 3 μM and 1 μM respectively for 15 min. The plates were washed and were subsequently incubated with a secondary HRP-conjugated anti-protein L monoclonal antibody (#32420, ThermoFisher, 1:6000 dilution). As with phage ELISA, the plates were again washed, developed with TMB substrate and quenched with 1.0 M HCl, and absorbance (Abs450) was determined. To determine the affinity (EC50), the data were fitted with a non-linear, 4-parameter logistic curve in OriginLab.

Row | Binder | TM of NT5E in the presence of the Fab [1] [° C.] | TM of NT5E in the presence of the Fab [2] [° C.] | TM of NT5E in the presence of the Fab [3] [° C.] | EC50 [4] [nM]
1 | 1789 Fab (Fab, V domains shown) VH: EVQLVESGGGLVQPGGSLRLSCAASGFNVSYSSIHWVRQAPGKGLEWVASISSSSGYTYYADSVKGRFTISADTSKNTAYLQMNSLRAEDTAVYYCARNYWGWYPFYYFAFDYWGQGTLVTV VL: DIQMTQSPSSLSASVGDRVTITCRASQSVSSAVAWYQQKPGKAPKLLIYSASSLYSGVPSRFSGSRSGTDFTLTISSLQPEDFATYYCQQGWDYPITFGQGTKVEIKR | 48 | 46 | 66 | –
2 | 1789 IgG (antibody, V domains shown) VH: EVQLVESGGGLVQPGGSLRLSCAASGFNVSYSSIHWVRQAPGKGLEWVASISSSSGYTYYADSVKGRFTISADTSKNTAYLQMNSLRAEDTAVYYCARNYWGWYPFYYFAFDYWGQGTLVTVSS VL: DIQMTQSPSSLSASVGDRVTITCRASQSVSSAVAWYQQKPGKAPKLLIYSASSLYSGVPSRFSGSRSGTDFTLTISSLQPEDFATYYCQQGWDYPITFGQGTKVEIKR | – | – | – | 1.14
